In US20240317871A1 (IMMUNOMIC THERAPEUTICS, published 2024):

T1: murine HVEM (murine, UniProt Q80WM9 39-206, limits assumed)
T1 construct: also called Mouse
T1 sequence (looked up): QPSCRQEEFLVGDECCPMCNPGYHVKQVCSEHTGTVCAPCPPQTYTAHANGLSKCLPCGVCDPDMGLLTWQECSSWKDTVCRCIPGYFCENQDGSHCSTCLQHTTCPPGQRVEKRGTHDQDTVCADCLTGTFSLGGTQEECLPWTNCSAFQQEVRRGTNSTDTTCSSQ

T2: human HVEM (human, UniProt Q92956 39-202, limits assumed)
T2 sequence (looked up): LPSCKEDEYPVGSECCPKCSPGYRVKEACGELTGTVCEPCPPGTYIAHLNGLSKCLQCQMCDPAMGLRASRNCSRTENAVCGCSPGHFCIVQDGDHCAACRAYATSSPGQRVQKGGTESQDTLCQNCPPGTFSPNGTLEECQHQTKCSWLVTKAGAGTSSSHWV

T3: Human HEVM recombinant protein (Sino Biological, 10334-H02H) (human, UniProt Q92956 39-202)
T3 construct: construct known only by catalogue number; also called HVEM; human HVEM
T3 sequence (looked up): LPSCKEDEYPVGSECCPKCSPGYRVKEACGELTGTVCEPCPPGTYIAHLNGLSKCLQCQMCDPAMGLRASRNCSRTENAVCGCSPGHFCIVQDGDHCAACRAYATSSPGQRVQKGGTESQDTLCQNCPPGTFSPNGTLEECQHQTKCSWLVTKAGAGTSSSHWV

T4: His-tagged human HVEM (human, UniProt Q92956 39-202, limits assumed)
T4 construct: Analyte of the BLI assay, 200 nM in PBS; not shown: His tag
T4 sequence (looked up): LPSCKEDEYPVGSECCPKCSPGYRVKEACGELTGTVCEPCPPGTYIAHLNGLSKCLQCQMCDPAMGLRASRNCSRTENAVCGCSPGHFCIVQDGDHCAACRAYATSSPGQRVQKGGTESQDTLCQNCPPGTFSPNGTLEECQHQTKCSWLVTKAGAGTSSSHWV

T5: cynomolgus monkey HVEM (cynomolgus monkey, UniProt A0A2K5W0R1 39-203)
T5 sequence: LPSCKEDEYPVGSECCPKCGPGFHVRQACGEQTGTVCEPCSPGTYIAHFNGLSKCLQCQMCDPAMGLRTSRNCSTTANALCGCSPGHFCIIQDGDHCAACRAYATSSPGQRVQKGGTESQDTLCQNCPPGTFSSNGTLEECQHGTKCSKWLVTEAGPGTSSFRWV


Tests used:
[1] = target: T1, murine HVEM; assay: ELISA
[2] = target: T2, human HVEM; assay: ELISA
[3] = target: T3, Human HEVM recombinant protein (Sino …); assay: competition ELISA, competitor BTLA-His
Experimental: The competitive activity of HVEM antibody to BTLA or LIGHT was evaluated with ELISA-based competitive assay. Briefly Human HEVM recombinant protein (Sino Biological, 10334-H02H, 4 ug/ml, 100 ul/well) was coated to ELISA plate (Thermo Scientific, 469949, 4C overnight). A pre-mixture of HVEM antibody clone with seral dilution and 400 nM BTLA-His (R&D systems, 9235-BT-050) or LIGHT-His (SinoBiological, 10386-H07H) recombinant protein was made and added to the ELISA plate after blocking with 3% BSA (200 ul/well, RT 2 Hr) for 1 Hr at RT. The serial dilutions of HVEM antibody clone involve 7 different concentrations, with a 3-fold dilution performed start from 100 nM for BTLA or 325 nM for LIGHT competitive assay. The concentration was the final concentration. Plate was washed with PBST; diluted HRP-anti-His (Biolegend, 652504, 1:1000) with PBS containing 5% FBS was added 100 ul per well for 1 Hr at RT. TMB substrate (KPL, 52-00-00) 100 ul per well after washing and incubate at room temperature for 15 minutes; then stop the development by adding 100 ul stop solution (KPL, 50-85-06). Plate was read at 450 nm. The IC50 was calculated using GraphPad Prism software (GraphPad Software, Inc. San Diego, CA, USA).

[4] = target: T4, His-tagged human HVEM; assay: BLI OctetRed96, mAb captured, 200 nM His-HVEM
Experimental: Binding of antibodies to HVEM may also be determined by bio-layer interferometry (BLI) on an OctetRed96@ system (Sartorius). (See http://www.fortebio.com/bli_technology.html for general description of a BLI assay.) For this experiment, murine anti-human HVEM antibodies were captured from culture supernatant using anti-mouse IgG Fc capture and immobilized to dip and read biosensors. Sensors were then dipped into a solution of 200 nM His-tagged human HVEM in phosphate-buffered saline (PBS). Probes were dipped into PBS assay buffer and the dissociation rate (koff) was measured. The association rate (kₒₙ) and affinity (KD) were determined by curve fitting analysis.

[5] = target: T5, cynomolgus monkey HVEM; assay: ELISA

| Binder | ELISA signal [1] | ELISA signal [2] | IC50 [3] [nM] | Kd [4] [nM] | koff [4] [s⁻¹] | kon [4] [M⁻¹ s⁻¹] | ELISA signal [5] |
| --- | --- | --- | --- | --- | --- | --- | --- |
| Ab_034 (H5S15-16A11B) (antibody, V domains shown, also called Ab_34) VH: DVQLVESGGGLVQPGGSRKLSCAASGFTFSSFGMHWVRQAPEKGLEWVAHISSGSSTIYYADTVKGRFTISRDNPKNTLFLQMTSLRSEDTAMYYCARGAYGNFAWFPYWGQGTLVTVSA VL: DVVMTQTPLSLSVSLGDQASISCRSSQSLVHSNGNTYLHWYLQKPGQSPKLLIYKVSNRFSGVPDRFSGSGSGTDFTLKISRVEAEDLGVYFCSQSTHVPTFGSGTKLEIK | 0.045 | 3.19 | 1.3 | 8.67 | 0.00235 | 270000 |  |
| Ab_035 (H5S15-9A10A) (antibody, V domains shown, also called Ab_35) VH: DVQLVESGGGLVQPGGSRKLSCAASGFTFSDFGMHWVRQAPEKGLEWVAHISSGSSTIYYADTVKGRFTISRDNPKNTLFLQMTSLRSEDTAMYYCARGAYGNFAWFPYWGQGTLVTVSA VL: DVVMTQTPLSLPVSLGDQASISCRSSQSLVHTNGNTYLHWYLQKPGQSPRLLIYKVSNRFSGVPDRFSGGGSGTDFTLKISRVEAEDLGVYFCSQSTHVPTFGSGTKLEIK | 0.045 | 3.2 | 1.4 | 6.58 | 0.00235 | 357000 |  |
| Ab_055 (H5S19-1A1A) (antibody, V domains shown, also called Ab_55) VH: DVQLQESGPGLVKPSQSLSLTCTVTGYSITSDYAWNWIRQFPGNKLEWMGYIAYSGGTSYSPSLKSRISITRDTSKNQFFLQLNSVTTEDTATYYCVYFKYGGAFAYWGQGTLVTVSA VL: NIVLTQSPASLAVSLGQRATISCRASESVDSYGNSLMHWYQQKPGQPPKLLIYLASNLESGVPARFSGSGSRTDFTLTIDPVEADDAATYYCQQNNEDPPTFGGGTKLEI | 0.042 | 2.95 |  | 544 | 0.0164 | 30200 | 2.21 |
| Ab_073 (H5S20-9A9A) (antibody, V domains shown, also called Ab_73) VH: EVQLQQSGADLVKPGASVKLSCTASGFNIRDTYMHWVNQRPEQGLEWIGRIDPANGNTKYAPKFQGRATITADTSSNTAYLHLSSLTSEDTAVYYCAGYGNSPWFAYWGQGTLVTVSA VL: DVLMTQTPLSLPVNLGDQASISCRSSQSIVHSNGNTYLEWYLQKPGQSPKLLIYKVSNRFSGVPDRFSGSGSGTDFTLKISRVEAEDLGVYYCFQGSHVPLTFGAGTKLELK | 0.045 | 3.24 | 3.2 | 370 | 0.109 | 294000 | 0.062 |
| Ab_074 (H5S20-52A21A) (antibody, V domains shown, also called Ab_74) VH: EVQLQQSGAELVKPGASVKLSCTASGFNIKDTYIHWLNQRPEQGLEWIGRIDPANGKTKFAPKFQDKATITADTSSNTAYLQLSSLTSEDTAVYYCAGYGNSPWFAYWGQGTLVTVSA VL: DVLMTQTPLSLPVSLGDQASISCRSSQSIVHSNGNTYLEWYLQKPGQSPKLLIYKVSNRVSGVPDRFSGSGSGTDFTLKISRVEAEDLGVYYCFQGSHVPLTFGAGTKLELK | 0.044 | 3.26 | 1.6 | 48.2 | 0.0272 | 565000 | 0.06 |
| Ab_008 (H5S14-11A10A) (antibody, V domains shown, also called Ab_8) VH: EVKLVESGGGLVKPGGSLRLSCAASGFTFSSFAMSWIRQTPEKGLEWVASITTGGSSYSPDSLKGRFTISRDNVRNIVYLQMSSLRSEDTAMYACARGGGGNYFWFAYWGQGTLVTVSA VL: DVVMTQTPLSLPVSLGDQASISCRSSQSLVHSNGNTYLHWYLQKPGQSPKLLIYKVSNRFSGVPDRFSGSGSGTDFTLKISRVEAEDLGVYFCSQSIHVPFTFGSGTKLEIK | 0.077 | 3.4 | 1.9 | 4.8 | 0.00231 | 482000 | 2.94 |
| Ab_009 (H5S14-8A7A) (antibody, V domains shown, also called Ab_9) VH: EVKLVESGGDLVKPGGSLKLSCAASGFTFSNYAMSWVRQTPEKRLEWVASISTGGTTSYYSDSVKGRFTISRDNARNILYLQMSSLRSEDTAMYYCARGGGGNYFWFTYWGQGTLVTISA VL: DVVMTQTPLSLPVSLGDQASISCRSSQSLVHSNGNTYLHWYLQKPGQSPKLLIYKVSNRFSGVPDRFSGSGSGTDFTLKISRVEAEDLGVYFCSQSTHVPFTFGSGTKLEIK | 0.047 | 3.11 | 2.1 | 35.1 | 0.0175 | 497000 | 1.88 |
| Ab_058 (H5S19-6A8A) (antibody, V domains shown, also called Ab_58) VH: EVQLVESGGGLVKPGGSLKLSCAASGFTFNIYTMSWVRQSPEMRLEWVAEISSGGSHTYYPDTVTGRFTISRDNAKNTLYLEMSSLRSEDTAIYYCARGGSLFDYWGQGTTLTVSS VL: DVQITQSPSYLAASPGETITINCRTSKNISKYLAWYQEKPGKTNKLLIYSGSTLQSGIPSRFSGSGSGTDFTLTISSLEPEDFVMYHCQQHNEYPWTFGGGTKLEIK | 0.043 | 3.16 | 1.3 | 2.67 | 0.00125 | 469000 | 0.064 |

Further lines, results first:

| ELISA signal [1] | ELISA signal [2] | IC50 [3] [nM] | Kd [4] [nM] | koff [4] [s⁻¹] | kon [4] [M⁻¹ s⁻¹] | ELISA signal [5] | Binder |
| --- | --- | --- | --- | --- | --- | --- | --- |
| 0.043 | 0.147 |  | 12400 | 1.08 | 86600 | 0.079 | Ab_077 (H5S20-31A16B) (antibody, V domains shown, also called Ab_77) VH: EVQLQQSGAELVRSGASVKLSCTTSGFNIKDYYMHWVKQRPEQGLEWIGWIDPENGDTEYAPKFQGKATMTADTSSNTAYLQLSSLTSEDTAVYYCNSRTLGYWGQGTLVTVSA VL: QIVLTQSPALMSASPGEKVTMTCSASSSVSFIYWYQQKPRSSPKPWIYLTSNLASGVPARFSGSGSGTSYSLTISSMEAEDAATYYCQQWSSNPLTFGAGTKLEL |
| 0.045 | 3.22 | 5.2 | 1570 | 0.323 | 206000 | 0.069 | Ab_087 (H5S20-59A43A) (antibody, V domains shown, also called Ab_87) VH: EVKLVESGGGLVKPGGSLKLSCAASGFTFSSYAMSWVRQTPEKRLEWVASISSGSSTYYPDSVKGRFTISRDNARNILYLQMSSLRSEDTAMYYCAKGRGYGNYLYAMDYWGQGTSVTVSS VL: DIVMTQSQKFMSTSVGDRVSVTCKASQNVGTNVAWYQQKPGQSPKALIYSASYRYSGVPDRFTGSGSGTDFTLTISNVQSEDLAEYFCQQYNSYPLTFGGGTKLEIK |
| 0.043 | 3.19 | 1.9 | 65.8 | 0.0167 | 254000 | 0.06 | Ab_083 (H5S20-49A39A) (antibody, V domains shown, also called Ab_153; Ab_83) VH: EVQLQQSGAELVKPGASVKLSCTASGFNIKDTYVHWVKERPEQGLEWIGRIDPANDNTKYAPKFQVKATITADTSSNTAYLQLSSLTSEDNAVYYCAPYGNYPAWFAYWGQGTLVTVSA VL: DVLMTQTPLSLPVSLGDQVSISCRSSQNIVHSNGNTYLEWYLQKPGQSPKLLIYKVSNRFSGVPDRFSGSGSGTDFTLKISRVEAEDLGVYYCFQGSHVPLTFGAGTKLELK |
| 0.054 | 2.97 | 11 | 13.9 | 0.0216 | 1.56e+06 | 0.062 | Ab_079 (H5S20-22A18A) (antibody, V domains shown, also called Ab_79) VH: EVQLQQSGAELVKPGASVKLSCTASGFNIKDTYMHWVKQRPEQGLEWIGRIDPANGNTKYAPKFQGKATITADTSSNTAYLQLSSLTSEDTAVYYCARSFGNYFDYWGQGTTLTVSS VL: NIVLTQSPASLAVSLGQRATISCRASESVDSYGNSFMHWYQQKPGQPPKLLIYLASNLESGVPARFSGSGSRTDFTLTIDPVEADDAATYYCQQNYADPWTFGGGTKLEIK |
